# Bridges are numbered along the chain shown (N, C = ends). Primed or numbered codes have the meaning given here. [ ]: non-standard residue; d: D form. Ygp = O-(8x polyethylene glycol-amino)-tyrosine (Tyr, amino-capped PEG8); Yn3 = O-(9x polyethylene glycol-azido)-tyrosine (Tyr, azide-capped PEG9); Ygp″ = O-(8x polyethylene glycol-amino)-tyrosine; Yn3″ = O-(9x polyethylene glycol-azido)-tyrosine; PEG16′ = 16x polyethylene glycol; PEG24′ = 24x polyethylene glycol; PEG4′ = 4x polyethylene glycol; PEG9′ = 9x polyethylene glycol; hSer = N[C@@H](CCO)C(=O)O; Nle = CCCC[C@H](N)C(=O)O
# T1: IL-2 receptor βγ complex (human, UniProt P14784 27-551; P31785 23-369)
# T1 sequence (looked up) 1: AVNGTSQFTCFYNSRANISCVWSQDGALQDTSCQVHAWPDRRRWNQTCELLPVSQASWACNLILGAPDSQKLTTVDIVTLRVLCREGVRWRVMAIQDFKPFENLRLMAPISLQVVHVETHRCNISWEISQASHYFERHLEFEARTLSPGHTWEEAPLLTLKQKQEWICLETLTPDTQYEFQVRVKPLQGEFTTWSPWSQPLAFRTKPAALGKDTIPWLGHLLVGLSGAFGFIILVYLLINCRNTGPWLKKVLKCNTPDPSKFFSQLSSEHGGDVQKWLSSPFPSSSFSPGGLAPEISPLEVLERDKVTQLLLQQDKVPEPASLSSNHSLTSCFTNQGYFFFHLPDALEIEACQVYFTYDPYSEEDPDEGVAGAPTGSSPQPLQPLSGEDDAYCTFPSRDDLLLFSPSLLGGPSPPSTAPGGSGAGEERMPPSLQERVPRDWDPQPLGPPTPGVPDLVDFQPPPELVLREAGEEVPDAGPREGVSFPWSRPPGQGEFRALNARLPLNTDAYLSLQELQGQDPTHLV
# T1 sequence (looked up) 2: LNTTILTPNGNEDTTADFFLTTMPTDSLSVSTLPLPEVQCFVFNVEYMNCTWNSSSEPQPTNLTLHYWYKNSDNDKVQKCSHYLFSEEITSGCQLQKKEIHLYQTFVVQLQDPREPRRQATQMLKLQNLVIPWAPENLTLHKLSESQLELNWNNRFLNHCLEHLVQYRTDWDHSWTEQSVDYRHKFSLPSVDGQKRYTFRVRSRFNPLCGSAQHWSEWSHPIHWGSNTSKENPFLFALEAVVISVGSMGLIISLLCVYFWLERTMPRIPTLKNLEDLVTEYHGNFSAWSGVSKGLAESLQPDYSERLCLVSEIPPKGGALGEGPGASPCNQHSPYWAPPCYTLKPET
# T2: IL-2Rβγ on HEK-Blue IL-2Rβγ reporter cells (InvivoGen) (UniProt P14784 27-551; P31785 23-369, limits assumed)
# T2 sequence (looked up) 1: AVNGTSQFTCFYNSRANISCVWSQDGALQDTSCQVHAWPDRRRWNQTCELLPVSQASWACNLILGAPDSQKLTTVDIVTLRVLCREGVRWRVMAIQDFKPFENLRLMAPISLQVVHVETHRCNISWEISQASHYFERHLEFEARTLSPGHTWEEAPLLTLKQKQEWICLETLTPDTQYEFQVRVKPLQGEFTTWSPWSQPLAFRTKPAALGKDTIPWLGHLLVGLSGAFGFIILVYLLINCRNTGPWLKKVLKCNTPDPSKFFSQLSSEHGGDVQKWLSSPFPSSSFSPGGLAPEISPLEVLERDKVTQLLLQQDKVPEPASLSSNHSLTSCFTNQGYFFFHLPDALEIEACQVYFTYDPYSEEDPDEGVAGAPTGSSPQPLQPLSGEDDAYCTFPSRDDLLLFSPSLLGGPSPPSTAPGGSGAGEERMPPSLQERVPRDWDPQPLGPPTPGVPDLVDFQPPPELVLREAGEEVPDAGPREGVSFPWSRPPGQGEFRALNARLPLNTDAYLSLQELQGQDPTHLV
# T2 sequence (looked up) 2: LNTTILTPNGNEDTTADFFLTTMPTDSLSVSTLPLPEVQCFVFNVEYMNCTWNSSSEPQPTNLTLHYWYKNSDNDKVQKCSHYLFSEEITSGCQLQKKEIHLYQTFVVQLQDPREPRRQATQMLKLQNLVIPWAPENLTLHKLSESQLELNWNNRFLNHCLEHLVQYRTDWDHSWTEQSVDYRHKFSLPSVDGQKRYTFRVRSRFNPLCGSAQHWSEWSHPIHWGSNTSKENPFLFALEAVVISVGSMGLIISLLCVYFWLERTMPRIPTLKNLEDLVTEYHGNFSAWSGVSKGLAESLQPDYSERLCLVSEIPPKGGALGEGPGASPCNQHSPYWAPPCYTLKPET
# What was measured:
# IL-2 receptor βγ complex = target: T1, IL-2 receptor βγ complex; experiment: cell-based or functional assay
# [1] = target: T2, IL-2Rβγ on HEK-Blue IL-2Rβγ reporter …; experiment: cell-based or functional assay
Binder,"Average EC50, pSTAT5 Assay (T cells) (IL-2 receptor βγ complex) [nM]","Average EC50, HEK-Blue IL-2R (CD122+, CD132+) Reporter Assay, MMP2 cleaved molecule [1] [pM]"
"CMP-152, MMP2 cleaved molecule (ligand, not fully specified (bridges); also: MMP2 cleaved, site not given here) PLGLAGAPTSSSTKKTQLQLEHLLLDLQ[Nle]ILNGINNYKNPKLTR[Nle]L[hSer][Yn3″]KF[Ygp″][Nle]PKKATELKHLQCLEEELKPLEEVL[hSer]LAQSKNFHLRPRDLISNINVIVLELKGSETTF[hSer]CEYADETATIVEFLNRWITFSQSIISTLT",2.95,–
"CMP-139 (ligand, bridge (positions not given here); not fully specified (bridges); ends not checked) [PEG16′]SGGPGPAGMKGLPGS[PEG16′]APTSSSTKKTQLQLEHLLLDLQ[Nle]ILNGIENYKNPKLTR[Nle]L[hSer][Yn3]KF[Ygp][Nle]PKKATELKHLQCLEEELKPLEEVL[hSer]LAQSKNFHLRPRDLISNINVIVLELKGSETTF[hSer]CEYADETATIVEFLNRWITFSQSIISTLT",21.3,–
"CMP-154 (ligand, linker N-35 via PEG9′) PLGLAGAPTSSSTKKTQLQLEHLLLDLQ[Nle]ILNGIENYKNPKLTR[Nle]L[hSer][Yn3″]KF[Ygp″][Nle]PKKATELKHLQCLEEELKPLEEVL[hSer]LAQSKNFHLRPRDLISNINVIVLELKGSETTF[hSer]CEYADETATIVEFLNRWITFSQSIISTLT",24.7,–
"CMP-137 (ligand, bridge (positions not given here); not fully specified (bridges); ends not checked) [PEG24′]PLGLAG[PEG24′]APTSSSTKKTQLQLEHLLLDLQ[Nle]ILNGIENYKNPKLTR[Nle]L[hSer][Yn3]KF[Ygp][Nle]PKKATELKHLQCLEEELKPLEEVL[hSer]LAQSKNFHLRPRDLISNINVIVLELKGSETTF[hSer]CEYADETATIVEFLNRWITFSQSIISTLT",27.1,–
"CMP-152 (ligand, linker N-38 via PEG9‑glutaryl) PLGLAGAPTSSSTKKTQLQLEHLLLDLQ[Nle]ILNGINNYKNPKLTR[Nle]L[hSer][Yn3″]KF[Ygp″][Nle]PKKATELKHLQCLEEELKPLEEVL[hSer]LAQSKNFHLRPRDLISNINVIVLELKGSETTF[hSer]CEYADETATIVEFLNRWITFSQSIISTLT",16.1,–
"CMP-154, MMP2 cleaved molecule (ligand, not fully specified (bridges); also: MMP2 cleaved, site not given here) PLGLAGAPTSSSTKKTQLQLEHLLLDLQ[Nle]ILNGIENYKNPKLTR[Nle]L[hSer][Yn3″]KF[Ygp″][Nle]PKKATELKHLQCLEEELKPLEEVL[hSer]LAQSKNFHLRPRDLISNINVIVLELKGSETTF[hSer]CEYADETATIVEFLNRWITFSQSIISTLT",4.2,–
"CMP-139, MMP2 cleaved molecule (ligand, ends and bridges not checked; also: cleaved by MMP2, cleavage product not defined, N-terminal PEG16 link and Glu29 side-chain attachment of the cleavable peptide not defined) APTSSSTKKTQLQLEHLLLDLQ[Nle]ILNGIENYKNPKLTR[Nle]L[hSer][Yn3]KF[Ygp][Nle]PKKATELKHLQCLEEELKPLEEVL[hSer]LAQSKNFHLRPRDLISNINVIVLELKGSETTF[hSer]CEYADETATIVEFLNRWITFSQSIISTLT",3.61,–
"CMP-137, MMP2 cleaved molecule (ligand, ends and bridges not checked; also: cleaved by MMP2, cleavage product not defined, N-terminal PEG24 link and Glu29 side-chain attachment of the cleavable peptide not defined) APTSSSTKKTQLQLEHLLLDLQ[Nle]ILNGIENYKNPKLTR[Nle]L[hSer][Yn3]KF[Ygp][Nle]PKKATELKHLQCLEEELKPLEEVL[hSer]LAQSKNFHLRPRDLISNINVIVLELKGSETTF[hSer]CEYADETATIVEFLNRWITFSQSIISTLT",4.09,–

# More lines, now with the values ahead:
"Average EC50, pSTAT5 Assay (T cells) (IL-2 receptor βγ complex) [nM]","Average EC50, HEK-Blue IL-2R (CD122+, CD132+) Reporter Assay, MMP2 cleaved molecule [1] [pM]",Binder
21.3,–,"CMP-156, MMP2 cleaved molecule (ligand, not fully specified; also: MMP2 cleaved, cleavage site and linker fragments on N-terminus and Glu19 side chain not given here) APTSSSTKKTQLQLEHLLEDLQ[Nle]ILNGINNYKNPKLTR[Nle]L[hSer][Yn3″]KF[Ygp″][Nle]PKKATELKHLQCLEEELKPLEEVL[hSer]LAQSKNFHLRPRDLISNINVIVLELKGSETTF[hSer]CEYADETATIVEFLNRWITFSQSIISTLT"
10.7,–,"CMP-155 (ligand, linker N-29 via GPLGLAG‑PEG9) APTSSSTKKTQLQLEHLLLDLQ[Nle]ILNGIENYKNPKLTR[Nle]L[hSer][Yn3″]KF[Ygp″][Nle]PKKATELKHLQCLEEELKPLEEVL[hSer]LAQSKNFHLRPRDLISNINVIVLELKGSETTF[hSer]CEYADETATIVEFLNRWITFSQSIISTLT"
–,9.4,"CMP-300, MMP2 cleaved (ligand, ends and bridges not checked; also: MMP2 cleaved, ring opened, cut site and remnants not given here) APTSSSTKKTQLQLEHLLLDLQEILNGINNYKNPKLTR[Nle]L[hSer][Yn3″]KF[Ygp″][Nle]PKKATELKHLQCLEEELKPLEEVL[hSer]LAQSKNFHLRPRDLISNINVIVLELKGSETTF[hSer]CEYADETATIVEFLNRWITFSQSIISTLT"
54.5,–,"CMP-157 (ligand, linker N-25 via PEG4′) PLGLAGAPTSSSTKKTQLQLEHLLEDLQ[Nle]ILNGINNYKNPKLTR[Nle]L[hSer][Yn3″]KF[Ygp″][Nle]PKKATELKHLQCLEEELKPLEEVL[hSer]LAQSKNFHLRPRDLISNINVIVLELKGSETTF[hSer]CEYADETATIVEFLNRWITFSQSIISTLT"
86,–,"CMP-156 (ligand, linker N-19 via GPLGLAG‑PEG4) APTSSSTKKTQLQLEHLLEDLQ[Nle]ILNGINNYKNPKLTR[Nle]L[hSer][Yn3″]KF[Ygp″][Nle]PKKATELKHLQCLEEELKPLEEVL[hSer]LAQSKNFHLRPRDLISNINVIVLELKGSETTF[hSer]CEYADETATIVEFLNRWITFSQSIISTLT"
2.9,–,"CMP-155, MMP2 cleaved molecule (ligand, not fully specified; also: cleaved by MMP2, cleavage product not defined, N-terminal PEG9 link and Glu29 side-chain attachment of the cleavable peptide not defined) APTSSSTKKTQLQLEHLLLDLQ[Nle]ILNGIENYKNPKLTR[Nle]L[hSer][Yn3″]KF[Ygp″][Nle]PKKATELKHLQCLEEELKPLEEVL[hSer]LAQSKNFHLRPRDLISNINVIVLELKGSETTF[hSer]CEYADETATIVEFLNRWITFSQSIISTLT"
